Measured values as given in patent US20260001928A1 (CORTERIA PHARMACEUTICALS, priority 2022, published 2026).
*1 amine or outer side, *2 acyl side, *3 side chain or, on linkers, in order; H or OH if unused. Where no end group is shown, it is not given here. Side-chain parts run from the residue outwards. [ ]: non-standard residue; d: D form. The star is where a group is joined. C18 diacid = O=C(O)CCCCCCCCCCCCCCCCC(=O)*; C16 diacid = O=C(O)CCCCCCCCCCCCCCC(=O)*; γGlu = O=C(O)[C@H](CCC(=O)[*:2])N[*:1]; AEEA = NCCOCCOCC(=O)O

T1: CRF1R receptor (UniProt P34998 24-415, limits assumed)
T1 sequence (looked up): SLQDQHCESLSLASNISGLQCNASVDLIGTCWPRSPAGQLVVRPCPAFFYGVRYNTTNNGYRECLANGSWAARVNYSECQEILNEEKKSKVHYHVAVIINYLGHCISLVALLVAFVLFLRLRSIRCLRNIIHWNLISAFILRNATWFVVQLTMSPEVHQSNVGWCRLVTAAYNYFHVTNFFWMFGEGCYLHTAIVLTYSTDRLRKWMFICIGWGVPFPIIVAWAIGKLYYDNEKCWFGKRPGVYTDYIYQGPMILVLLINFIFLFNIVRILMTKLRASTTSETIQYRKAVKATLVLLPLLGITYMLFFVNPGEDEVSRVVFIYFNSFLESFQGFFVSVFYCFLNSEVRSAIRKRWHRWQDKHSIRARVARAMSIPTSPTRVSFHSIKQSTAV


Experiments:
[1] = biological target: human corticotropin-releasing factor 2a (CRF2a receptor) (human), Q13324; experiment: cell-based or functional assay
Chain of human corticotropin-releasing factor 2a (CRF2a receptor) (human), Q13324 (Q13324 20-411): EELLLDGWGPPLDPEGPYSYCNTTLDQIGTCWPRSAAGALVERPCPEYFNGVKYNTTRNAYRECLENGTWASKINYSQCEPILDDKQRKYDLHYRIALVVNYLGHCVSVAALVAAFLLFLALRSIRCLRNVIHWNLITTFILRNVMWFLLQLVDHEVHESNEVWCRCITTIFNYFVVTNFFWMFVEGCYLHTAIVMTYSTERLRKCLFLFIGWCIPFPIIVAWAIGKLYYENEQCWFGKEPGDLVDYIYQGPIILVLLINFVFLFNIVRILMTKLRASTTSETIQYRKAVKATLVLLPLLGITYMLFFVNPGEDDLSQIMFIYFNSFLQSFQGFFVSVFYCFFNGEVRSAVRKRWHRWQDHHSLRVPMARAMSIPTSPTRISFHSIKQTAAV

CRF1R receptor = biological target: T1, CRF1R receptor; experiment: cell-based or functional assay

| EC50 [nM] (cAMP) [1] | EC50 (CRF1R receptor) | Emax (% I) (CRF1R receptor) | Binder |
| --- | --- | --- | --- |
| 0.44 nM | > 250 nM | 4% | IVLSLDVPIKLK([AEEA-AEEA-γGlu-C18 diacid])KILLEQEKQKKQREQAETNKQILAQV-NH2 (not fully specified (residue 7); printed as IVLSLDVPIKLK*KILLEQEKQKKQREQAETNKQILAQV-NH2) [SEQ ID NO 149] |
| 0.18 nM | – | – | H-IVLSLD[dV]PIKLK([γGlu-γGlu-C16 diacid])QILLKQERQKKQREQAEKNKQILEQV-NH2 (SMILES CC[C@H](C)[C@H](N)C(=O)N[C@H](C(=O)N[C@@H](CC(C)C)C(=O)N[C@@H](CO)C(=O)N[C@@H](CC(C)C)C(=O)N[C@@H](CC(=O)O)C(=O)N[C@@H](C(=O)N1CCC[C@H]1C(=O)N[C@H](C(=O)N[C@@H](CCCCN)C(=O)N[C@@H](CC(C)C)C(=O)N[C@@H](CCCCNC(=O)CC[C@H](NC(=O)CC[C@H](NC(=O)CCCCCCCCCCCCCCC(=O)O)C(=O)O)C(=O)O)C(=O)N[C@@H](CCC(N)=O)C(=O)N[C@H](C(=O)N[C@@H](CC(C)C)C(=O)N[C@@H](CC(C)C)C(=O)N[C@@H](CCCCN)C(=O)N[C@@H](CCC(N)=O)C(=O)N[C@@H](CCC(=O)O)C(=O)N[C@@H](CCCNC(=N)N)C(=O)N[C@@H](CCC(N)=O)C(=O)N[C@@H](CCCCN)C(=O)N[C@@H](CCCCN)C(=O)N[C@@H](CCC(N)=O)C(=O)N[C@@H](CCCNC(=N)N)C(=O)N[C@@H](CCC(=O)O)C(=O)N[C@@H](CCC(N)=O)C(=O)N[C@@H](C)C(=O)N[C@@H](CCC(=O)O)C(=O)N[C@@H](CCCCN)C(=O)N[C@@H](CC(N)=O)C(=O)N[C@@H](CCCCN)C(=O)N[C@@H](CCC(N)=O)C(=O)N[C@H](C(=O)N[C@@H](CC(C)C)C(=O)N[C@@H](CCC(=O)O)C(=O)N[C@@H](CCC(N)=O)C(=O)N[C@H](C(N)=O)C(C)C)[C@@H](C)CC)[C@@H](C)CC)[C@@H](C)CC)C(C)C)C(C)C) [SEQ ID NO 147] |
| 0.12 nM | – | – | H-IVLSLD[dV]PIKLK([γGlu-C16 diacid])QILLKQERQKKQREQAEKNKQILEQV-NH2 (SMILES CC[C@H](C)[C@H](N)C(=O)N[C@H](C(=O)N[C@@H](CC(C)C)C(=O)N[C@@H](CO)C(=O)N[C@@H](CC(C)C)C(=O)N[C@@H](CC(=O)O)C(=O)N[C@@H](C(=O)N1CCC[C@H]1C(=O)N[C@H](C(=O)N[C@@H](CCCCN)C(=O)N[C@@H](CC(C)C)C(=O)N[C@@H](CCCCNC(=O)CC[C@H](NC(=O)CCCCCCCCCCCCCCC(=O)O)C(=O)O)C(=O)N[C@@H](CCC(N)=O)C(=O)N[C@H](C(=O)N[C@@H](CC(C)C)C(=O)N[C@@H](CC(C)C)C(=O)N[C@@H](CCCCN)C(=O)N[C@@H](CCC(N)=O)C(=O)N[C@@H](CCC(=O)O)C(=O)N[C@@H](CCCNC(=N)N)C(=O)N[C@@H](CCC(N)=O)C(=O)N[C@@H](CCCCN)C(=O)N[C@@H](CCCCN)C(=O)N[C@@H](CCC(N)=O)C(=O)N[C@@H](CCCNC(=N)N)C(=O)N[C@@H](CCC(=O)O)C(=O)N[C@@H](CCC(N)=O)C(=O)N[C@@H](C)C(=O)N[C@@H](CCC(=O)O)C(=O)N[C@@H](CCCCN)C(=O)N[C@@H](CC(N)=O)C(=O)N[C@@H](CCCCN)C(=O)N[C@@H](CCC(N)=O)C(=O)N[C@H](C(=O)N[C@@H](CC(C)C)C(=O)N[C@@H](CCC(=O)O)C(=O)N[C@@H](CCC(N)=O)C(=O)N[C@H](C(N)=O)C(C)C)[C@@H](C)CC)[C@@H](C)CC)[C@@H](C)CC)C(C)C)C(C)C) [SEQ ID NO 151] |
